# Source: PMC9482650, “Quantitative fragmentomics allow affinity mapping of interactomes” (Nature Communications, 2022)
# B1: GPRC6A, Q5T6X5 (peptide)
# chain: TLPRKRMSSI
# B2: EFNB1, P52799 (peptide)
# chain: QSPANIYYKV
# Molecular target: NHERF2_2, Q15599
# Assay: holdup assay
# Parameters: key: below the threshold = too weak to quantify, mostly under pKd 3.1 to 4
# Conditions: plain residues with an end cap or a label only (N-terminal biotin on a linker: ado-ado)
# Chain of NHERF2_2, Q15599 (Q15599 142-238): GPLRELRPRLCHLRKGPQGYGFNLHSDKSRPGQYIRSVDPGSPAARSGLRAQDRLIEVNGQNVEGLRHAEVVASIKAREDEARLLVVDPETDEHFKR
row,Binder,pKd
1,B1,below the threshold
2,B2,below the threshold

# Molecular target: T1, MPDZ_5, O75970
# T1 sequence (O75970 695-796, limits assumed, looked up): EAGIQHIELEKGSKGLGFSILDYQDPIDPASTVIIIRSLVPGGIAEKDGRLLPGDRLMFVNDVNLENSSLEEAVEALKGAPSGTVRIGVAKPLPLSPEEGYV
# Assay: holdup assay
# Parameters: key: below the threshold = too weak to quantify, mostly under pKd 3.1 to 4
# Conditions: plain residues with an end cap or a label only (N-terminal biotin on a linker: ado-ado)
row,Binder,pKd
1,B1,below the threshold
2,B2,below the threshold

# Molecular target: GRASP, Q7Z6J2
# Sequence (Q7Z6J2 96-193): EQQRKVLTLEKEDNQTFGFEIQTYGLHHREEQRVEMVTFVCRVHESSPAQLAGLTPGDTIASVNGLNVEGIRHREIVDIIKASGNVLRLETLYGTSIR
# Assay: holdup assay
# Parameters: key: below the threshold = too weak to quantify, mostly under pKd 3.1 to 4
# Conditions: plain residues with an end cap or a label only (N-terminal biotin on a linker: ado-ado)
row,Binder,pKd
1,B1,below the threshold
2,B2,below the threshold

# Molecular target: T2, DFNB31_3, Q9P202
# T2 sequence (Q9P202 811-907, limits assumed, looked up): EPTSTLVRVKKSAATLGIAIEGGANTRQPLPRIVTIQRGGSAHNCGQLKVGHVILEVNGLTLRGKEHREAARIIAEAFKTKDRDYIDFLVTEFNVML
# Assay: holdup assay
# Parameters: key: below the threshold = too weak to quantify, mostly under pKd 3.1 to 4
# Conditions: plain residues with an end cap or a label only (N-terminal biotin on a linker: ado-ado)
row,Binder,pKd
1,B1,below the threshold
2,B2,below the threshold

# Molecular target: DLG1_1, Q12959
# Assay: holdup assay
# Parameters: key: below the threshold = too weak to quantify, mostly under pKd 3.1 to 4
# Conditions: plain residues with an end cap or a label only (N-terminal biotin on a linker: ado-ado)
row,Binder,pKd
1,B1,below the threshold
2,B2,below the threshold

# Molecular target: IL16_3, Q14005
# Sequence (Q14005 1107-1207): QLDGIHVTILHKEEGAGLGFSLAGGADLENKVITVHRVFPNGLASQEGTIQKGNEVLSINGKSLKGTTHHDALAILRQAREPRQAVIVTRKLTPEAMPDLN
# Assay: holdup assay
# Parameters: key: below the threshold = too weak to quantify, mostly under pKd 3.1 to 4
# Conditions: plain residues with an end cap or a label only (N-terminal biotin on a linker: ado-ado)
row,Binder,pKd
1,B1,below the threshold
2,B2,below the threshold

# Molecular target: T3, SNTA1, Q13424
# T3 sequence (Q13424 82-180, limits assumed, looked up): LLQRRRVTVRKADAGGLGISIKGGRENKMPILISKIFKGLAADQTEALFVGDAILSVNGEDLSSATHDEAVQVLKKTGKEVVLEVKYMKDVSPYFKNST
# Assay: holdup assay
# Parameters: key: below the threshold = too weak to quantify, mostly under pKd 3.1 to 4
# Conditions: plain residues with an end cap or a label only (N-terminal biotin on a linker: ado-ado)
row,Binder,pKd
1,B1,below the threshold
2,B2,below the threshold

# Molecular target: T4, SIPA1L2, Q9P2F8
# T4 sequence (Q9P2F8 945-1036, limits assumed, looked up): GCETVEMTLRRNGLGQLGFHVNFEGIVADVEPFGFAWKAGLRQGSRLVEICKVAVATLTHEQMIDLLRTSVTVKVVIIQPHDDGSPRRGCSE
# Assay: holdup assay
# Parameters: key: below the threshold = too weak to quantify, mostly under pKd 3.1 to 4
# Conditions: plain residues with an end cap or a label only (N-terminal biotin on a linker: ado-ado)
row,Binder,pKd
1,B1,below the threshold
2,B2,below the threshold

# Molecular target: GRIP2_6, Q9C0E4
# Sequence (Q9C0E4 648-740): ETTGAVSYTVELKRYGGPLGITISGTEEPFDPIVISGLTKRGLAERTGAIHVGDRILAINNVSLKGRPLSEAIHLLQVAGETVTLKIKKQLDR
# Assay: holdup assay
# Parameters: key: below the threshold = too weak to quantify, mostly under pKd 3.1 to 4
# Conditions: plain residues with an end cap or a label only (N-terminal biotin on a linker: ado-ado)
row,Binder,pKd
1,B1,below the threshold
2,B2,4.4

# Molecular target: T5, PDZD2_2, O15018
# T5 sequence (O15018 329-429, limits assumed, looked up): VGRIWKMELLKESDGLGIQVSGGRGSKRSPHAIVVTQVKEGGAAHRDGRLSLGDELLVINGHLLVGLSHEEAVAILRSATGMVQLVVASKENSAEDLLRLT
# Assay: holdup assay
# Parameters: key: below the threshold = too weak to quantify, mostly under pKd 3.1 to 4
# Conditions: plain residues with an end cap or a label only (N-terminal biotin on a linker: ado-ado)
row,Binder,pKd
1,B1,4.22
2,B2,below the threshold

# Molecular target: DLG2_3, Q15700
# Assay: holdup assay
# Parameters: key: below the threshold = too weak to quantify, mostly under pKd 3.1 to 4
# Conditions: plain residues with an end cap or a label only (N-terminal biotin on a linker: ado-ado)
row,Binder,pKd
1,B1,3.84
2,B2,below the threshold

# Molecular target: MAGI2_2, Q86UL8
# Sequence (Q86UL8 410-522): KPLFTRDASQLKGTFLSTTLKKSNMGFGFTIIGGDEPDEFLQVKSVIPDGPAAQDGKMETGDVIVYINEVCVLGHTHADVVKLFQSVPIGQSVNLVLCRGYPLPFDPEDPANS
# Assay: holdup assay
# Parameters: key: below the threshold = too weak to quantify, mostly under pKd 3.1 to 4
# Conditions: plain residues with an end cap or a label only (N-terminal biotin on a linker: ado-ado)
row,Binder,pKd
1,B1,3.82
2,B2,below the threshold

# Molecular target: FRMPD2_3, Q68DX3
# Sequence (Q68DX3 1073-1166): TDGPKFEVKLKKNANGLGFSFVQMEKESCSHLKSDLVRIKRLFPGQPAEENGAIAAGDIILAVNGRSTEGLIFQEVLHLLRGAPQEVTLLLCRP
# Assay: holdup assay
# Parameters: key: below the threshold = too weak to quantify, mostly under pKd 3.1 to 4
# Conditions: plain residues with an end cap or a label only (N-terminal biotin on a linker: ado-ado)
row,Binder,pKd
1,B1,below the threshold
2,B2,below the threshold

# Molecular target: DLG1_2, Q12959
# Assay: holdup assay
# Parameters: key: below the threshold = too weak to quantify, mostly under pKd 3.1 to 4
# Conditions: plain residues with an end cap or a label only (N-terminal biotin on a linker: ado-ado)
row,Binder,pKd
1,B1,3.76
2,B2,below the threshold

# Molecular target: T6, NHERF3_1, Q5T2W1
# T6 sequence (Q5T2W1 4-100, limits assumed, looked up): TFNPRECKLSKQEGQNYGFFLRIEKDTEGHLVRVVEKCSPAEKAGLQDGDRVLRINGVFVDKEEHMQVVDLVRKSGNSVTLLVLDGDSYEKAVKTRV
# Assay: holdup assay
# Parameters: key: below the threshold = too weak to quantify, mostly under pKd 3.1 to 4
# Conditions: plain residues with an end cap or a label only (N-terminal biotin on a linker: ado-ado)
row,Binder,pKd
1,B1,below the threshold
2,B2,below the threshold

# Molecular target: T7, PCLO, Q9Y6V0
# T7 sequence (Q9Y6V0 4491-4600, limits assumed, looked up): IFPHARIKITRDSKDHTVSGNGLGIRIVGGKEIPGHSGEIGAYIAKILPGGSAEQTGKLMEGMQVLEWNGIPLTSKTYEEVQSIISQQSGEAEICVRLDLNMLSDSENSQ
# Assay: holdup assay
# Parameters: key: below the threshold = too weak to quantify, mostly under pKd 3.1 to 4
# Conditions: plain residues with an end cap or a label only (N-terminal biotin on a linker: ado-ado)
row,Binder,pKd
1,B1,below the threshold
2,B2,below the threshold

# Molecular target: FRMPD2_2, Q68DX3
# Sequence (Q68DX3 944-1038): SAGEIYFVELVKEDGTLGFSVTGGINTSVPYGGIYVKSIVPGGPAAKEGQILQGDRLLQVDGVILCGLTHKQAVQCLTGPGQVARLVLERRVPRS
# Assay: holdup assay
# Parameters: key: below the threshold = too weak to quantify, mostly under pKd 3.1 to 4
# Conditions: plain residues with an end cap or a label only (N-terminal biotin on a linker: ado-ado)
row,Binder,pKd
1,B1,below the threshold
2,B2,below the threshold

# Molecular target: T8, DFNB31_2, Q9P202
# T8 sequence (Q9P202 274-371, limits assumed, looked up): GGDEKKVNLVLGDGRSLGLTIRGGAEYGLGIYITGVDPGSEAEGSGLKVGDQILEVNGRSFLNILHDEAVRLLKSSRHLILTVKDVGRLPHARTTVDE
# Assay: holdup assay
# Parameters: key: below the threshold = too weak to quantify, mostly under pKd 3.1 to 4
# Conditions: plain residues with an end cap or a label only (N-terminal biotin on a linker: ado-ado)
row,Binder,pKd
1,B1,below the threshold
2,B2,below the threshold

# Molecular target: GRID2IP_2, A4D2P6
# Sequence (A4D2P6 272-370): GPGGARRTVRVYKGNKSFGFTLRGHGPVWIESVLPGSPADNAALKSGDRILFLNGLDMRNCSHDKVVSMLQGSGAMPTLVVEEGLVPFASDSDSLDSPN
# Assay: holdup assay
# Parameters: key: below the threshold = too weak to quantify, mostly under pKd 3.1 to 4
# Conditions: plain residues with an end cap or a label only (N-terminal biotin on a linker: ado-ado)
row,Binder,pKd
1,B1,3.87
2,B2,below the threshold

# Molecular target: T9, NHERF3_4, Q5T2W1
# T9 sequence (Q5T2W1 373-468, limits assumed, looked up): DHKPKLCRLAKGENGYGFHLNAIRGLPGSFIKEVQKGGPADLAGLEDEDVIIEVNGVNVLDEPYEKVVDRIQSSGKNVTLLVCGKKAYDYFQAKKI
# Assay: holdup assay
# Parameters: key: below the threshold = too weak to quantify, mostly under pKd 3.1 to 4
# Conditions: plain residues with an end cap or a label only (N-terminal biotin on a linker: ado-ado)
row,Binder,pKd
1,B1,below the threshold
2,B2,below the threshold

# Molecular target: GRIP2_5, Q9C0E4
# Sequence (Q9C0E4 544-642): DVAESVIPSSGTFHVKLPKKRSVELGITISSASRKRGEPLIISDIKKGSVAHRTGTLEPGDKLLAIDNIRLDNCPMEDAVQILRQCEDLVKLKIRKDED
# Assay: holdup assay
# Parameters: key: below the threshold = too weak to quantify, mostly under pKd 3.1 to 4
# Conditions: plain residues with an end cap or a label only (N-terminal biotin on a linker: ado-ado)
row,Binder,pKd
1,B1,below the threshold
2,B2,below the threshold

# Molecular target: T10, MPP6, Q9NZW5
# T10 sequence (Q9NZW5 125-219, limits assumed, looked up): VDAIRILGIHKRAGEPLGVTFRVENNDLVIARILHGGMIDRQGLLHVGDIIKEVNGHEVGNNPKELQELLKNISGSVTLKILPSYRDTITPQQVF
# Assay: holdup assay
# Parameters: key: below the threshold = too weak to quantify, mostly under pKd 3.1 to 4
# Conditions: plain residues with an end cap or a label only (N-terminal biotin on a linker: ado-ado)
row,Binder,pKd
1,B1,below the threshold
2,B2,below the threshold

# Molecular target: T11, LIN7A, O14910
# T11 sequence (O14910 103-200, limits assumed, looked up): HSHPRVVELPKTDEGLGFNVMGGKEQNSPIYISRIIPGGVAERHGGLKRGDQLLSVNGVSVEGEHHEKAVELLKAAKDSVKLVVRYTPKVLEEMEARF
# Assay: holdup assay
# Parameters: key: below the threshold = too weak to quantify, mostly under pKd 3.1 to 4
# Conditions: plain residues with an end cap or a label only (N-terminal biotin on a linker: ado-ado)
row,Binder,pKd
1,B1,below the threshold
2,B2,below the threshold

# Molecular target: T12, CARD11, Q9BXL7
# T12 sequence (Q9BXL7 662-765, limits assumed, looked up): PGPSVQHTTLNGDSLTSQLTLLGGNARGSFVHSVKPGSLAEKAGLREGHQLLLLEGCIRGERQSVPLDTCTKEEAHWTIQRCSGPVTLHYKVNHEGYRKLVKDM
# Assay: holdup assay
# Parameters: key: below the threshold = too weak to quantify, mostly under pKd 3.1 to 4
# Conditions: plain residues with an end cap or a label only (N-terminal biotin on a linker: ado-ado)
row,Binder,pKd
1,B1,below the threshold
2,B2,below the threshold

# Molecular target: MAST1, Q9Y2H9
# Sequence (Q9Y2H9 962-1065): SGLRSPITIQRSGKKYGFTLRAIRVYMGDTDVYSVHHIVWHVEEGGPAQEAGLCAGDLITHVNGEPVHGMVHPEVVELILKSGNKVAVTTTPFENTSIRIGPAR
# Assay: holdup assay
# Parameters: key: below the threshold = too weak to quantify, mostly under pKd 3.1 to 4
# Conditions: plain residues with an end cap or a label only (N-terminal biotin on a linker: ado-ado)
row,Binder,pKd
1,B1,3.6
2,B2,3.93

# Molecular target: GIPC2, Q8TF65
# Sequence (Q8TF65 112-203): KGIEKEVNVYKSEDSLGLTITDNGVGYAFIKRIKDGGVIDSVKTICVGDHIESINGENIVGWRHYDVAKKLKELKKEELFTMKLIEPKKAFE
# Assay: holdup assay
# Parameters: key: below the threshold = too weak to quantify, mostly under pKd 3.1 to 4
# Conditions: plain residues with an end cap or a label only (N-terminal biotin on a linker: ado-ado)
row,Binder,pKd
1,B1,below the threshold
2,B2,below the threshold
